Assay results taken from US20230250415.

Tests used:
[1] = test system: alpha2-TALEN-R (Platinum TALEN, TRAC exon 1); test: cell_activity; details: half-site not delineated
[2] = test system: alpha2-TALEN-L (Platinum TALEN, TRAC exon 1); test: cell_activity; details: half-site not delineated
[3] = 1G4 knock-in efficiency in beta-null Jurkat with alpha2-TALEN pair and modified PITCh vector
[4] = 1G4 knock-in efficiency in beta-null Jurkat with alpha2-TALEN pair and conventional PITCh vector

GTCTGCCTATTCACCGATTGAAGATTTTGATTCAATGTGTCACAAAGTAAGGA (double strand)
activity [1, 3]: 3.5%
activity [2, 3]: 3.5%

GTCTGCCTATTCACCGATTGAAGATTTTGATTCAATGTGTCACAAAGTAAGGATTC (double strand)
activity [1, 4]: 3.1%
activity [2, 4]: 3.1%
